Measurements reported in US20190360025A1.

What was measured:
[1] = target: tumor necrosis factor alpha (TNF-α), R&D Systems 210-TA-005 (UniProt P01375); assay: c-PLA 1X probes, buffer; TNF-α 1.00E-10 M
[2] = target: tumor necrosis factor alpha (TNF-α), R&D Systems 210-TA-005 (UniProt P01375); assay: t-PLA 1X probes, buffer; TNF-α 5.00E-07 M
[3] = target: tumor necrosis factor alpha (TNF-α), R&D Systems 210-TA-005 (UniProt P01375); assay: c-PLA 1X probes, human plasma; TNF-α 5.00E-07 M
[4] = target: tumor necrosis factor alpha (TNF-α), R&D Systems 210-TA-005 (UniProt P01375); assay: c-PLA, buffer; TNF-α 1.00E-10 M
[5] = target: tumor necrosis factor alpha (TNF-α), R&D Systems 210-TA-005 (UniProt P01375); assay: t-PLA 10X probes, buffer; TNF-α 1.00E-10 M
[6] = target: tumor necrosis factor alpha (TNF-α), R&D Systems 210-TA-005 (UniProt P01375); assay: SPR (Biacore T200), 1:1 global fit
[7] = target: tumor necrosis factor alpha (TNF-α), R&D Systems 210-TA-005 (UniProt P01375); assay: c-PLA, buffer; TNF-α 1.00E-11 M
[8] = target: tumor necrosis factor alpha (TNF-α), R&D Systems 210-TA-005 (UniProt P01375); assay: t-PLA 10X probes, human plasma; TNF-α 1.00E-08 M
[9] = target: tumor necrosis factor alpha (TNF-α), R&D Systems 210-TA-005 (UniProt P01375); assay: t-PLA 10X probes, human plasma; TNF-α 1.00E-10 M
[10] = target: tumor necrosis factor alpha (TNF-α), R&D Systems 210-TA-005 (UniProt P01375); assay: t-PLA 10X probes, human plasma; TNF-α 5.00E-07 M
[11] = target: tumor necrosis factor alpha (TNF-α), R&D Systems 210-TA-005 (UniProt P01375); assay: c-PLA 10X probes, buffer; TNF-α 5.00E-07 M
[12] = target: tumor necrosis factor alpha (TNF-α), R&D Systems 210-TA-005 (UniProt P01375); assay: c-PLA 10X probes, human plasma; TNF-α 5.00E-07 M
[13] = target: tumor necrosis factor alpha (TNF-α), R&D Systems 210-TA-005 (UniProt P01375); assay: t-PLA, buffer; TNF-α 1.00E-09 M
[14] = target: tumor necrosis factor alpha (TNF-α), R&D Systems 210-TA-005 (UniProt P01375); assay: c-PLA, buffer; TNF-α 1.00E-09 M
[15] = target: vascular endothelial growth factor (VEGF), R&D Systems 293-VE-010 (human) (UniProt P15692); assay: t-PLA, chicken plasma; VEGF 1.00E-13 M
Chain of UniProt P15692 (P15692 other isoform, or with tags, fused parts or gaps limits assumed): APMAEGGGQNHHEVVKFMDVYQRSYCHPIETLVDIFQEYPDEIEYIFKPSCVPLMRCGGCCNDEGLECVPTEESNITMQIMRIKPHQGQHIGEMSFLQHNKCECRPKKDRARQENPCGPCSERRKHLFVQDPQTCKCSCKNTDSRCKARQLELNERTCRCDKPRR

[16] = target: vascular endothelial growth factor (VEGF), R&D Systems 293-VE-010 (human) (UniProt P15692); assay: t-PLA, human plasma; VEGF 1.00E-14 M
[17] = target: vascular endothelial growth factor (VEGF), R&D Systems 293-VE-010 (human) (UniProt P15692); assay: c-PLA, chicken plasma; VEGF 1.00E-10 M
[18] = target: vascular endothelial growth factor (VEGF), R&D Systems 293-VE-010 (human) (UniProt P15692); assay: c-PLA, buffer; VEGF 1.00E-08 M
[19] = target: vascular endothelial growth factor (VEGF), R&D Systems 293-VE-010 (human) (UniProt P15692); assay: t-PLA, chicken plasma; VEGF 1.00E-12 M
[20] = target: vascular endothelial growth factor (VEGF), R&D Systems 293-VE-010 (human) (UniProt P15692); assay: c-PLA, human plasma; VEGF 1.00E-08 M
[21] = target: vascular endothelial growth factor (VEGF), R&D Systems 293-VE-010 (human) (UniProt P15692); assay: c-PLA, chicken plasma; VEGF 1.00E-09 M
[22] = target: vascular endothelial growth factor (VEGF), R&D Systems 293-VE-010 (human) (UniProt P15692); assay: c-PLA, buffer; VEGF 1.00E-12 M
[23] = target: vascular endothelial growth factor (VEGF), R&D Systems 293-VE-010 (human) (UniProt P15692); assay: SPR (Biacore T200), 1:1 global fit
[24] = target: vascular endothelial growth factor (VEGF), R&D Systems 293-VE-010 (human) (UniProt P15692); assay: c-PLA, human plasma; VEGF 1.00E-10 M
[25] = target: vascular endothelial growth factor (VEGF), R&D Systems 293-VE-010 (human) (UniProt P15692); assay: t-PLA, buffer; VEGF 1.00E-11 M
[26] = target: vascular endothelial growth factor (VEGF), R&D Systems 293-VE-010 (human) (UniProt P15692); assay: c-PLA, human plasma; VEGF 1.00E-12 M
[27] = target: vascular endothelial growth factor (VEGF), R&D Systems 293-VE-010 (human) (UniProt P15692); assay: c-PLA with preamplification; VEGF 1.00E-13 M
[28] = target: vascular endothelial growth factor (VEGF), R&D Systems 293-VE-010 (human) (UniProt P15692); assay: c-PLA with preamplification; VEGF 1.00E-09 M
[29] = target: vascular endothelial growth factor (VEGF), R&D Systems 293-VE-010 (human) (UniProt P15692); assay: c-PLA, chicken plasma; VEGF 1.00E-13 M

Chain of UniProt P01375 (P01375 77-233 limits assumed): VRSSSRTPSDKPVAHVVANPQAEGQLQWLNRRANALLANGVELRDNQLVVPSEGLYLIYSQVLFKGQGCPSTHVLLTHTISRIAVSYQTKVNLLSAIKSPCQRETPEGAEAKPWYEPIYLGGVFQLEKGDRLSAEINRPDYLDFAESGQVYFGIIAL

**Q.** How did the Counts [1] turn out when “affinity-purified polyclonal anti-TNF-α antibody (R&D Systems AF-210-NA)” was run?
**A.** 260

**Q.** And the Counts [2]?
**A.** 1.33e+08

**Q.** And the Counts [3]?
**A.** 28800

**Q.** And the SBR [3]?
**A.** 383

**Q.** What about the Counts [4] of the same substance?
**A.** 260

**Q.** And the Counts [5]?
**A.** 2.75e+07

**Q.** And the SBR [5]?
**A.** 4.8

**Q.** What about the Kd [6] of the same substance?
**A.** 279 pM

**Q.** And the Counts [7]?
**A.** 22.1

**Q.** What about the Counts [8] of the same substance?
**A.** 3.81e+08

**Q.** And the SBR [8]?
**A.** 33

**Q.** And the Counts [9]?
**A.** 1.44e+07

**Q.** And the SBR [9]?
**A.** 1.3

**Q.** And the Counts [10]?
**A.** 2.25e+09

**Q.** And the SBR [10]?
**A.** 198

**Q.** And the Counts [11]?
**A.** 650000

**Q.** And the SBR [11]?
**A.** 3550

**Q.** What about the Counts [12] of the same substance?
**A.** 495000

**Q.** And the SBR [12]?
**A.** 230

**Q.** And the Counts [13]?
**A.** 1.98e+07

**Q.** What about the SBR [13] of the same substance?
**A.** 116

**Q.** And the Counts [14]?
**A.** 3700

**Q.** What about the SBR [14] of the same substance?
**A.** 328

**Q.** For “affinity-purified polyclonal anti-VEGF antibody (R&D Systems AF-293-NA)”, which Counts [15] is on record?
**A.** 133000

**Q.** And the Counts [16]?
**A.** 1.63e+06

**Q.** What about the Counts [17] of the same substance?
**A.** 26800

**Q.** What about the SBR [17] of the same substance?
**A.** 2900

**Q.** And the Counts [18]?
**A.** 483000

**Q.** What about the SBR [18] of the same substance?
**A.** 16300

**Q.** And the Counts [19]?
**A.** 787000

**Q.** And the SBR [19]?
**A.** 12

**Q.** And the Counts [20]?
**A.** 24800

**Q.** And the SBR [20]?
**A.** 96

**Q.** What about the Counts [21] of the same substance?
**A.** 73600

**Q.** What about the SBR [21] of the same substance?
**A.** 7980

**Q.** And the Counts [22]?
**A.** 619

**Q.** What about the SBR [22] of the same substance?
**A.** 21

**Q.** What about the Kd [23] of the same substance?
**A.** 3.6 pM

**Q.** And the Counts [24]?
**A.** 13800

**Q.** And the SBR [24]?
**A.** 53

**Q.** What about the Counts [25] of the same substance?
**A.** 4.21e+07

**Q.** And the SBR [25]?
**A.** 122

**Q.** What about the Counts [26] of the same substance?
**A.** 408

**Q.** What about the SBR [26] of the same substance?
**A.** 1.6

**Q.** And the Counts [27]?
**A.** 95500

**Q.** And the SBR [27]?
**A.** 1.6

**Q.** What about the Counts [28] of the same substance?
**A.** 2.36e+08

**Q.** And the SBR [28]?
**A.** 3970

**Q.** And the Counts [29]?
**A.** 29

**Q.** And the SBR [29]?
**A.** 3.1
